Measured values reported in US20210373004A1 (BIOASTER, published 2021).

How the values were obtained:
Flag-EmGFP-ColE7-6His [1] = target: T1, Flag-EmGFP-ColE7-6His (Escherichia coli); test: EIA 8 plex n° 1: colicin coated at 100 nM, Im-RLuc8 alone at 100 nM, luciferase signal
T1 construct: also called Colicin E7

[2] = target: T2, Flag-mCherry-ColLeaf-Cys-6His (Pseudomonas sp Leaf83); test: EIA 8 plex n° 2: colicin coated at 100 nM, Im-RLuc8 at 100 nM, luminescence; light bar alone, dark bar with the 7 other unfused Im proteins
[3] = target: T3, Flag-mCherry-ColKhan-Cys-6His (Photorhabdus khanii); test: as above
Flag-mCherry-ColE9-6His [4] = target: T4, Flag-mCherry-ColE9-6His (Escherichia coli); test: EIA 8 plex n° 1: colicin coated at 100 nM, Im-RLuc8 at 100 nM, luminescence; light bar alone, dark bar with the 7 other unfused Im proteins
T4 construct: also called Colicin E9

Flag-EmGFP-ColE2-6His [5] = target: T5, Flag-EmGFP-ColE2-6His (Escherichia coli); test: as above
T5 construct: Coated on the plate or sprayed on the membrane; also called Colicin E2

Flag-mCherry-ColE8-6His [6] = target: T6, Flag-mCherry-ColE8-6His (Escherichia coli); test: as above
T6 construct: also called Colicin E8

[7] = target: T7, Flag-mCherry-ColErw-Cys-6His (Pectobacterium carotovorum); test: as above
[8] = target: T8, Flag-mCherry-ColSyr-Cys-6His (Pseudomonas syringae B728A); test: EIA 8 plex n° 1: colicin coated at 100 nM, Im-RLuc8 alone at 100 nM, luciferase signal (FIG. 3, light grey bars)
[9] = target: T8, Flag-mCherry-ColSyr-Cys-6His; test: EIA 8 plex n° 2: colicin coated at 100 nM, Im-RLuc8 alone at 100 nM, luciferase signal (FIG. 4, light grey bars)
[10] = target: T9, Flag-mCherry-ColAP41-Cys-6His (Pseudomonas aeruginosa AP41); test: EIA 8 plex n° 1: colicin coated at 100 nM, Im-RLuc8 at 100 nM, luminescence; light bar alone, dark bar with the 7 other unfused Im proteins
[11] = target: T8, Flag-mCherry-ColSyr-Cys-6His; test: as above
Flag-EmGFP-ColE7-6His [12] = target: T1, Flag-EmGFP-ColE7-6His; test: as above
[13] = target: T3, Flag-mCherry-ColKhan-Cys-6His; test: as above
[14] = target: T7, Flag-mCherry-ColErw-Cys-6His; test: EIA 8 plex n° 1: colicin coated at 100 nM, Im-RLuc8 alone at 100 nM, luciferase signal (FIG. 3, light grey bars)
[15] = target: T7, Flag-mCherry-ColErw-Cys-6His; test: EIA 8 plex n° 2: colicin coated at 100 nM, Im-RLuc8 alone at 100 nM, luciferase signal (FIG. 4, light grey bars)
Flag-mCherry-ColE8-6His [16] = target: T6, Flag-mCherry-ColE8-6His; test: EIA 4 plex: colicin coated at 100 nM, Im-RLuc8 alone at 100 nM, luciferase signal (FIG. 1, light grey bars)
Flag-mCherry-ColE9-6His [17] = target: T4, Flag-mCherry-ColE9-6His; test: EIA 8 plex n° 1: colicin coated at 100 nM, Im-RLuc8 alone at 100 nM, luciferase signal
[18] = target: T7, Flag-mCherry-ColErw-Cys-6His; test: as above
[19] = target: T9, Flag-mCherry-ColAP41-Cys-6His; test: EIA 8 plex n° 2: colicin coated at 100 nM, Im-RLuc8 at 100 nM, luminescence; light bar alone, dark bar with the 7 other unfused Im proteins
[20] = target: T2, Flag-mCherry-ColLeaf-Cys-6His; test: EIA 8 plex n° 2: colicin coated at 100 nM, Im-RLuc8 alone at 100 nM, luciferase signal
Flag-mCherry-ColE8-6His [21] = target: T6, Flag-mCherry-ColE8-6His; test: EIA 8 plex n° 1: colicin coated at 100 nM, Im-RLuc8 alone at 100 nM, luciferase signal (FIG. 3, light grey bars)
Flag-mCherry-ColE8-6His [22] = target: T6, Flag-mCherry-ColE8-6His; test: EIA 8 plex n° 2: colicin coated at 100 nM, Im-RLuc8 alone at 100 nM, luciferase signal (FIG. 4, light grey bars)
Flag-EmGFP-ColE7-6His [23] = target: T1, Flag-EmGFP-ColE7-6His; test: kinetics, literature value (Li W. et al., 2004) printed above the bar pair; unit from the legend paragraph 10
Flag-mCherry-ColE9-6His [24] = target: T4, Flag-mCherry-ColE9-6His; test: as above
Flag-EmGFP-ColE2-6His [25] = target: T5, Flag-EmGFP-ColE2-6His; test: as above
[26] = target: T9, Flag-mCherry-ColAP41-Cys-6His; test: EIA 8 plex n° 1: colicin coated at 100 nM, Im-RLuc8 alone at 100 nM, luciferase signal (FIG. 3, light grey bars)
[27] = target: T9, Flag-mCherry-ColAP41-Cys-6His; test: EIA 8 plex n° 2: colicin coated at 100 nM, Im-RLuc8 alone at 100 nM, luciferase signal (FIG. 4, light grey bars)

Row | Binder | RLU (Flag-EmGFP-ColE7-6His [1]) | binding result [2] | binding result [3] | binding result (Flag-mCherry-ColE9-6His [4]) | binding result (Flag-EmGFP-ColE2-6His [5]) | binding result (Flag-mCherry-ColE8-6His [6]) | binding result [7] | binding result [11] | binding result (Flag-EmGFP-ColE7-6His [12]) | binding result [13] | further results
1 | Myc-RLuc8-ImSyr-Avitag-6His (other, Immunity protein fused to the luciferase RLuc8 as reporter; added in solution; also called ImSyr-Rluc8) MGGEQKLISEEDLGGSASKVYDPEQRKRMITGPQWWARCKQMNVLDSFINYYDSEKHAENAVIFLHGNATSSYLWRHVVPHIEPVARCIIPDLIGMGKSGKSGNGSYRLLDHYKYLTAWFELLNLPKKIIFVGHDWGAALAFHYAYEHQDRIKAIVHMESVVDVIESWDEWPDIEEDIALIKSEEGEKMVLENNFFVETVLPSKIMRKLEPEEFAAYLEPFKEKGEVRRPTLSWPREIPLVKGGKPDVVQIVRNYNAYLRASDDLPKLFIESDPGFFSNAIVEGAKKFPNTEFVKVKGLHFLQEDAPDEMGKYIKSFVERVLKNEQKLPGGSIFKEKIEDYTEEEFLEFLKGLSSEYSQLHGDEFIKHMDRSVEHFVKITEHPAQTDVIFYPEEGQEDTPEGILKVIKEWRAKNGKPGFKSGGSGGSGLNDIFEAQKIEWHELEGGGSHHHHHH | > 100000 RLU | no binding (tested: 100 nM) | no binding (tested: 100 nM) | no binding (tested: 100 nM) | no binding (tested: 100 nM) | no binding (tested: 100 nM) | no binding (tested: 100 nM) | – | – | – | RLU [8]: > 2e+06 RLU; RLU [9]: > 2.4e+06 RLU
2 | Myc-RLuc8-ImErw-Avitag-6His (other, Immunity protein fused to the luciferase RLuc8 as reporter; added in solution; also called ImErw-Rluc8) MGGEQKLISEEDLGGSASKVYDPEQRKRMITGPQWWARCKQMNVLDSFINYYDSEKHAENAVIFLHGNATSSYLWRHVVPHIEPVARCIIPDLIGMGKSGKSGNGSYRLLDHYKYLTAWFELLNLPKKIIFVGHDWGAALAFHYAYEHQDRIKAIVHMESVVDVIESWDEWPDIEEDIALIKSEEGEKMVLENNFFVETVLPSKIMRKLEPEEFAAYLEPFKEKGEVRRPTLSWPREIPLVKGGKPDVVQIVRNYNAYLRASDDLPKLFIESDPGFFSNAIVEGAKKFPNTEFVKVKGLHFLQEDAPDEMGKYIKSFVERVLKNEQKLPGGSNLKEKLEDYTEAEFISYLKEFFDNPMGLRGKELETHLDSLVEHFDKIVFHPEGNGLIFYPPDERDDSPEGVLNEIKRWRKSQGLPLFKDSKGGSGGSGLNDIFEAQKIEWHELEGGGSHHHHHH | – | no binding (tested: 100 nM) | – | no binding (tested: 100 nM) | no binding (tested: 100 nM) | no binding (tested: 100 nM) | – | no binding (tested: 100 nM) | no binding (tested: 100 nM) | binds | binding result [10]: no binding (tested: 100 nM); RLU [14]: > 2e+06 RLU; RLU [15]: > 2.4e+06 RLU
3 | Myc-RLuc8-Im8-6His (other, Immunity protein fused to the luciferase RLuc8 as reporter; added in solution; also called Im8-RLuc8; Im8-Rluc8) MGGEQKLISEEDLGGSASKVYDPEQRKRMITGPQWWARCKQMNVLDSFINYYDSEKHAENAVIFLHGNATSSYLWRHVVPHIEPVARCIIPDLIGMGKSGKSGNGSYRLLDHYKYLTAWFELLNLPKKIIFVGHDWGAALAFHYAYEHQDRIKAIVHMESVVDVIESWDEWPDIEEDIALIKSEEGEKMVLENNFFVETVLPSKIMRKLEPEEFAAYLEPFKEKGEVRRPTLSWPREIPLVKGGKPDVVQIVRNYNAYLRASDDLPKLFIESDPGFFSNAIVEGAKKFPNTEFVKVKGLHFLQEDAPDEMGKYIKSFVERVLKNEQKLELKNSISDYTETEFKKIIEDIINCEGDEKKQDDNLEHFISVTEHPSGSDLIYYPEGNNDGSPEAVIKEIKEWRAANGKSGFKQGLEGGGSHHHHHH | > 100000 RLU | – | – | – | – | – | – | no binding (tested: 100 nM) | – | no binding (tested: 100 nM) | RLU (Flag-mCherry-ColE8-6His [16]): > 400000 RLU; RLU (Flag-mCherry-ColE9-6His [17]): > 100000 RLU; RLU [18]: > 100000 RLU; binding result [19]: no binding (tested: 100 nM); RLU [20]: > 100000 RLU; RLU (Flag-mCherry-ColE8-6His [21]): > 2e+06 RLU; RLU (Flag-mCherry-ColE8-6His [22]): > 2.4e+06 RLU; Kd (Flag-EmGFP-ColE7-6His [23]): 0.37 nM; Kd (Flag-mCherry-ColE9-6His [24]): 500 nM; Kd (Flag-EmGFP-ColE2-6His [25]): 38 nM
4 | Myc-RLuc8-ImAP41-Avitag-6His (other, Immunity protein fused to the luciferase RLuc8 as reporter; added in solution; also called ImAP41-Rluc8) MGGEQKLISEEDLGGSASKVYDPEQRKRMITGPQWWARCKQMNVLDSFINYYDSEKHAENAVIFLHGNATSSYLWRHVVPHIEPVARCIIPDLIGMGKSGKSGNGSYRLLDHYKYLTAWFELLNLPKKIIFVGHDWGAALAFHYAYEHQDRIKAIVHMESVVDVIESWDEWPDIEEDIALIKSEEGEKMVLENNFFVETVLPSKIMRKLEPEEFAAYLEPFKEKGEVRRPTLSWPREIPLVKGGKPDVVQIVRNYNAYLRASDDLPKLFIESDPGFFSNAIVEGAKKFPNTEFVKVKGLHFLQEDAPDEMGKYIKSFVERVLKNEQKLPGGSDIKNNLSDYTESEFLEIIEEFFKNKSGLKGSELEKRMDKLVKHFEEVTSHPRKSGVIFHPKPGFETPEGIVKEVKEWRAANGLPGFKAGLEGGSGGSGLNDIFEAQKIEWHELEGGGSHHHHHH | – | no binding (tested: 100 nM) | no binding (tested: 100 nM) | no binding (tested: 100 nM) | no binding (tested: 100 nM) | no binding (tested: 100 nM) | no binding (tested: 100 nM) | no binding (tested: 100 nM) | no binding (tested: 100 nM) | – | RLU [26]: > 2e+06 RLU; RLU [27]: > 2.4e+06 RLU
